Here are results for ten molecules from patent publication EP4424325A1 (JCR Pharmaceuticals Co., Ltd., dated 2024).

Assay [1] addresses T1, recombinant hTfR containing the extracellular region of hTfR (coated on the ELISA plate in Example 16) (human, UniProt P02786 89-760).
T1 construct: That contradicts 'extracellular region' (residue 89 to the C-terminus elsewhere); also called human transferrin receptor
The assay is described as follows: ELISA, recombinant hTfR coated on plate, detection with anti-hIDS monoclonal antibody.

Assay [2] addresses T2, recombinant monkey TfR, extracellular region of cynomolgus monkey transferrin receptor with a histidine tag … (cynomolgus monkey (Macaca fascicularis), UniProt Q5RDH6 89-760 (Pongo abelii entry)).
T2 construct: also called monkey TfR-ECD(Histag); cynomolgus monkey TfR; not shown: N-terminal histidine tag
T2 chain: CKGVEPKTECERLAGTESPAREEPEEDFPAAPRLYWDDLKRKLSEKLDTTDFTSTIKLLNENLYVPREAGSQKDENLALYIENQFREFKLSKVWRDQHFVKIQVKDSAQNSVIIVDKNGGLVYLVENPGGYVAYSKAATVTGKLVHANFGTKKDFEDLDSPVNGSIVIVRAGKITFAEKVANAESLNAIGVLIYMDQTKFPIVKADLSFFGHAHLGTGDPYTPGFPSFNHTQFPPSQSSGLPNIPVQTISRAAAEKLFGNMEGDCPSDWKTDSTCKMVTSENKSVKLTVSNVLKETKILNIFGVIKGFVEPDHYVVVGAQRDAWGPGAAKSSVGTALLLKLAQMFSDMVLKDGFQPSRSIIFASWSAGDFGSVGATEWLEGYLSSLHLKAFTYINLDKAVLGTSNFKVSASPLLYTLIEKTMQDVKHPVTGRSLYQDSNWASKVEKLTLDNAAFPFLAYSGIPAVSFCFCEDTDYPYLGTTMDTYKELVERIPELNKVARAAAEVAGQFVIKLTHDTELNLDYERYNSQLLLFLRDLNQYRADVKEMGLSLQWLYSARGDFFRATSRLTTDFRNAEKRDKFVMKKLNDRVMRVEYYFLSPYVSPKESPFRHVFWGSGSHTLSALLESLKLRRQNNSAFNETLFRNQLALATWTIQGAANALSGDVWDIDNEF
Put plainly: ratio calculated from the measured KD values.

Assay [3] has as its target T3, recombinant hTfR, extracellular region of human transferrin receptor with a histidine tag added at the … (human, UniProt P02786 89-760).
T3 construct: also called hTfR-ECD(Histag); human TfR; not shown: N-terminal histidine tag
The assay is described as follows: BLI (OctetRED96), His-tagged TfR ECD on Ni-NTA sensor, peptide in solution.
Target sequence in this assay (P02786 89-760): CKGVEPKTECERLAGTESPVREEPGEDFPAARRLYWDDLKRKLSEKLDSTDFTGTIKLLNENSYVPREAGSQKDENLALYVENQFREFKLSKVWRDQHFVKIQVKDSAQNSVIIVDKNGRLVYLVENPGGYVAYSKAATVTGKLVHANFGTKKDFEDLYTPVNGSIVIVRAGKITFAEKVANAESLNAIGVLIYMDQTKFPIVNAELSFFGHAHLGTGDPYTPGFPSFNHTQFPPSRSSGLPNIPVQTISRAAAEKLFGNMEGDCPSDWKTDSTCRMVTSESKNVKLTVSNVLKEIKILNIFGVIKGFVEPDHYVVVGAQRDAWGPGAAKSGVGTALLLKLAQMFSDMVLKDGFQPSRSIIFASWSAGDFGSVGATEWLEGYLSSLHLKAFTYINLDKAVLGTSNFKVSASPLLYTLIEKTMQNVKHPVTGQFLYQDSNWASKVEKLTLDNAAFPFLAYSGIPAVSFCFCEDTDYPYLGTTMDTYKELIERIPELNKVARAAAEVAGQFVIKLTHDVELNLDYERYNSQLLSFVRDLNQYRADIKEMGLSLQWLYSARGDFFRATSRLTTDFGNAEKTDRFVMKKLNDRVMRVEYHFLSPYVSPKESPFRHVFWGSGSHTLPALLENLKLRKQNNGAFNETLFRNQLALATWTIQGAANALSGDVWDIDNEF

Assay [4] has as its target T2, recombinant monkey TfR, extracellular …. The assay is described as above.
Assay [5] has as its target T3, recombinant hTfR, extracellular region …. The assay is described as follows: BLI (OctetRED96), method of Example 7, His-tagged TfR ECD on Ni-NTA sensor.
Assay [6] concerns the target T2, recombinant monkey TfR, extracellular …. The description is as above.

B1: VHH5-Tandem-GS3-hIDS (other)
chain: QVQLVESGGGLVQPGGSLRLSCAASGSIFDIYVMRWYRQAPGKGLEWVASIYDGGRNDYDNVVKGRFTISRDNSKNTLYLQMNSLRAEDTAVYFCNVLTYAGRPYWGQGTQVTVSSGSQVQLVESGGGLVQPGGSLRLSCAASGSIFDIYVMRWYRQAPGKGLEWVASIYDGGRNDYDNVVKGRFTISRDNSKNTLYLQMNSLRAEDTAVYFCNVLTYAGRPYWGQGTQVTVSSGGGGSGGGGSGGGGSSETQANSTTDALNVLLIIVDDLRPSLGCYGDKLVRSPNIDQLASHSLLFQNAFAQQAVCAPSRVSFLTGRRPDTTRLYDFNSYWRVHAGNFSTIPQYFKENGYVTMSVGKVFHPGISSNHTDDSPYSWSFPPYHPSSEKYENTKTCRGPDGELHANLLCPVDVLDVPEGTLPDKQSTEQAIQLLEKMKTSASPFFLAVGYHKPHIPFRYPKEFQKLYPLENITLAPDPEVPDGLPPVAYNPWMDIRQREDVQALNISVPYGPIPVDFQRKIRQSYFASVSYLDTQVGRLLSALDDLQLANSTIIAFTSDHGWALGEHGEWAKYSNFDVATHVPLIFYVPGRTASLPEAGEKLFPYLDPFDSASQLMEPGRQSMDLVELVSLFPTLAGLAGLQVPPRCPVPSFHVELCREGKNLLKHFRFRDLEEDPYLPGNPRELIAYSQYPRPSDIPQWNSDKPSLKDIKIMGYSIRTIDYRYTVWVGFNPDEFLANFSDIHAGELYFVDSDPLQDHNMYNDSQGGDLFQLLMP
notes: Two copies of peptide 5 in tandem, fused to hIDS; also called VHH5-Tandem-GS3-hI2S
For B1, in assay [1], the EC50 (as a rule, the concentration that produces a half-maximal response) worked out at 0.077 nM.

B2: VHH5-GS3-hIDS (other)
chain: QVQLVESGGGLVQPGGSLRLSCAASGSIFDIYVMRWYRQAPGKGLEWVASIYDGGRNDYDNVVKGRFTISRDNSKNTLYLQMNSLRAEDTAVYFCNVLTYAGRPYWGQGTQVTVSSGGGGSGGGGSGGGGSSETQANSTTDALNVLLIIVDDLRPSLGCYGDKLVRSPNIDQLASHSLLFQNAFAQQAVCAPSRVSFLTGRRPDTTRLYDFNSYWRVHAGNFSTIPQYFKENGYVTMSVGKVFHPGISSNHTDDSPYSWSFPPYHPSSEKYENTKTCRGPDGELHANLLCPVDVLDVPEGTLPDKQSTEQAIQLLEKMKTSASPFFLAVGYHKPHIPFRYPKEFQKLYPLENITLAPDPEVPDGLPPVAYNPWMDIRQREDVQALNISVPYGPIPVDFQRKIRQSYFASVSYLDTQVGRLLSALDDLQLANSTIIAFTSDHGWALGEHGEWAKYSNFDVATHVPLIFYVPGRTASLPEAGEKLFPYLDPFDSASQLMEPGRQSMDLVELVSLFPTLAGLAGLQVPPRCPVPSFHVELCREGKNLLKHFRFRDLEEDPYLPGNPRELIAYSQYPRPSDIPQWNSDKPSLKDIKIMGYSIRTIDYRYTVWVGFNPDEFLANFSDIHAGELYFVDSDPLQDHNMYNDSQGGDLFQLLMP
notes: VHH-enzyme fusion; also called VHH5-GS3-hI2S
For B2, the EC50 in assay [1] amounted to 1.09 nM.

B3: VHH6-GS3-hIDS (other)
chain: QVQLVESGGGLVQPGGSLRLSCAASGSIFDIYVMRWYRQAPGKGLEWVASIYAGGRNDYDNVVKGRFTISRDNSKNTLYLQMNSLRAEDTAVYFCNVLTYAGRPYWGQGTQVTVSSGGGGSGGGGSGGGGSSETQANSTTDALNVLLIIVDDLRPSLGCYGDKLVRSPNIDQLASHSLLFQNAFAQQAVCAPSRVSFLTGRRPDTTRLYDFNSYWRVHAGNFSTIPQYFKENGYVTMSVGKVFHPGISSNHTDDSPYSWSFPPYHPSSEKYENTKTCRGPDGELHANLLCPVDVLDVPEGTLPDKQSTEQAIQLLEKMKTSASPFFLAVGYHKPHIPFRYPKEFQKLYPLENITLAPDPEVPDGLPPVAYNPWMDIRQREDVQALNISVPYGPIPVDFQRKIRQSYFASVSYLDTQVGRLLSALDDLQLANSTIIAFTSDHGWALGEHGEWAKYSNFDVATHVPLIFYVPGRTASLPEAGEKLFPYLDPFDSASQLMEPGRQSMDLVELVSLFPTLAGLAGLQVPPRCPVPSFHVELCREGKNLLKHFRFRDLEEDPYLPGNPRELIAYSQYPRPSDIPQWNSDKPSLKDIKIMGYSIRTIDYRYTVWVGFNPDEFLANFSDIHAGELYFVDSDPLQDHNMYNDSQGGDLFQLLMP
notes: VHH-enzyme fusion; also called VHH6-GS3-hI2S
Regarding B3, the concentration giving a half-maximal response (EC50) in assay [1] was found to be 22.7 nM.

B4: hTfR affinity peptide 1 (VHH)
VHH: QVQLVESGGGLVHPGGSLRLSCVASGTSFSLNVVTWYRQALGKQREWVATINQSEAPTYADSVKGRFTISRDGAKNTVYLQMNSLVTEDTALYYCYDRYNEIRGQGTQVTVSS
notes: Expressed in CHO-S cells, purified on Anti-FLAG M1 agarose; also called clone 1; VHH(1)
On to B4, for which the “relative value of KD with monkey TfR (KD with hTfR taken as 1)” value (“relative value of KD with monkey TfR” below) in assay [2] was 1.06. In assay [3], the Kd (as a rule, a measure of binding affinity in units of concentration) amounted to 97 nM; the koff (commonly the rate constant with which the complex falls apart) was 0.0271 s⁻¹; the kon – broadly, the second-order rate constant of association – turned out to be 280000 M⁻¹ s⁻¹.

B5: hTfR affinity peptide 2 (VHH)
VHH: QVQLVESGGGLVHPGGSLSLSCAASGTSFSFNTVTWYRQALGKQREWVATINGSGAPTYADSVKGRFTISRDGAKNTVYLLMNSLVTEDTALYYCYDRYNEIRGQGTQVTVSS
notes: The tag is stated only for peptide 1; Peptides 2 to 5 were obtained 'in the same manner'; also called clone 2; VHH(2)
Turning to B5, in assay [2], the “relative value of KD with monkey TfR” value was 2.36. In assay [3], the Kd was 61.4 nM, the koff was found to be 0.0146 s⁻¹ and the kon is 237000 M⁻¹ s⁻¹.

B6: hTfR affinity peptide 4 (VHH)
VHH: QVQLVESGGGLVQAGASLRLSCAASGRTDGIDRMAWFHQAPGEGREFVAGINKRGGGVDYAPGVKGRFTLSLDSDKNTLYLQMNNLRLEDTGVYSCAVGSGRIIVKSDTWGQGTQVTVSS
notes: The tag is stated only for peptide 1; Peptides 2 to 5 were obtained 'in the same manner'; also called clone 4; VHH(4)
Regarding B6, in assay [2], the “relative value of KD with monkey TfR” value was 0.83. For the same molecule, in assay [3], the Kd came to 11.9 nM, the off-rate constant (koff) stood at 0.0027 s⁻¹ and the kon amounted to 227000 M⁻¹ s⁻¹. Further, in assay [4], the Kd came out at 9.92 nM, the koff turned out to be 0.00316 s⁻¹ and the kon came to 318000 M⁻¹ s⁻¹.

B7: VHH3-GS3-hSGSH (other)
chain: DYKDDDDKQVQLVESGGGLVQPGESLRLSCAASGSIFDIYVMRWYRQAPGNQREWVASIYDGGRNDYDNVVKGRFTISRDNAKNTVHLQMNSLKPEDTAVYFCNVLTYAGRPYWGQGTQVTVSSGGGGSGGGGSGGGGSRPRNALLLLADDGGFESGAYNNSAIATPHLDALARRSLLFRNAFTSVSSCSPSRASLLTGLPQHQNGMYGLHQDVHHFNSFDKVRSLPLLLSQAGVRTGIIGKKHVGPETVYPFDFAYTEENGSVLQVGRNITRIKLLVRKFLQTQDDRPFFLYVAFHDPHRCGHSQPQYGTFCEKFGNGESGMGRIPDWTPQAYDPLDVLVPYFVPNTPAARADLAAQYTTVGRMDQGVGLVLQELRDAGVLNDTLVIFTSDNGIPFPSGRTNLYWPGTAEPLLVSSPEHPKRWGQVSEAYVSLLDLTPTILDWFSIPYPSYAIFGSKTIHLTGRSLLPALEAEPLWATVFGSQSHHEVTMSYPMRSVQHRHFRLVHNLNFKMPFPIDQDFYVSPTFQDLLNRTTAGQPTGWYKDLRHYYYRARWELYDRSRDPHETQNLATDPRFAQLLEMLRDQLAKWQWETHDPWVCAPDGVLEEKLSPQCQPLHNEL
notes: VHH-enzyme fusion; Purified on anti-FLAG M1 gel; also called VHH-GS3-hSGSH
Take B7: in assay [5], the equilibrium dissociation constant (Kd) was under 1 pM, the koff was under 1e-07 s⁻¹ and the kon amounted to 423000 M⁻¹ s⁻¹. Moreover, in assay [6], the Kd is 1.16 pM, the dissociation rate constant (koff) came to 4.81e-07 s⁻¹ and the kon is 417000 M⁻¹ s⁻¹.

B8: hTfR affinity peptide 5 (VHH)
VHH: QVQLVESGGGLVQPGGSLRLSCAASGSIFDIYVMRWYRQAPGKGLEWVASIYDGGRNDYDNVVKGRFTISRDNSKNTLYLQMNSLRAEDTAVYFCNVLTYAGRPYWGQGTQVTVSS
notes: Same CDRs as peptide 3; The tag is stated only for peptide 1; Peptides 2 to 5 were obtained 'in the same manner'; also called clone 5; VHH(5)
As to B8, the “relative value of KD with monkey TfR” value in assay [2] was 1.27. In assay [3], the dissociation constant (Kd) is 13.8 nM, the koff is 0.00562 s⁻¹ and the kon came out at 407000 M⁻¹ s⁻¹. Moreover, in assay [4], the Kd was 17.5 nM, the koff amounted to 0.00695 s⁻¹ and the association rate constant (kon) worked out at 396000 M⁻¹ s⁻¹.

B9: hTfR affinity peptide 6 (VHH)
VHH: QVQLVESGGGLVQPGGSLRLSCAASGSIFDIYVMRWYRQAPGKGLEWVASIYAGGRNDYDNVVKGRFTISRDNSKNTLYLQMNSLRAEDTAVYFCNVLTYAGRPYWGQGTQVTVSS
notes: One amino acid of CDR2 of peptide 5 is substituted; also called VHH6
On to B9, for which, in assay [3], the Kd stood at 137 nM, the koff worked out at 0.0586 s⁻¹ and the kon is 428000 M⁻¹ s⁻¹.

B10: hTfR affinity peptide 3 (VHH)
VHH: QVQLVESGGGLVQPGESLRLSCAASGSIFDIYVMRWYRQAPGNQREWVASIYDGGRNDYDNVVKGRFTISRDNAKNTVHLQMNSLKPEDTAVYFCNVLTYAGRPYWGQGTQVTVSS
notes: The tag is stated only for peptide 1; Peptides 2 to 5 were obtained 'in the same manner'; also called clone 3; VHH(3)
Take B10: the “relative value of KD with monkey TfR” value in assay [2] is 1.02. Moreover, in assay [3], the Kd is 10.5 nM, the koff came to 0.006 s⁻¹ and the kon is 571000 M⁻¹ s⁻¹. Besides, in assay [4], the Kd was determined as 10.7 nM, the koff turned out to be 0.0123 s⁻¹ and the kon was 1.15e+06 M⁻¹ s⁻¹.
